The supplement of paper PMC9170038

System: MS2 coat protein
Assay: apparent KD of MS2 coat protein; higher = weaker reporter binding
Conditions: Eterna round: R107
Procedure, shortened: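 SNAP-549-labelled MS2 coat protein was titrated onto designed RNA switches that had been transcribed on-chip from Illumina sequencing clusters. Amounts doubled from 0.7 or 1.5 nM to 3 µM in 100 mM Tris-HCl pH 7.5, 80 mM KCl, 4 mM MgCl2, with constant ligand or without. Apparent KD is the median per design of normalised cluster binding-curve fits.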

[1] = input ligand: theophylline 20 uM
[2] = input ligand: theophylline 2 mM
[3] = input ligand: tryptophan 2.4 mM

Sequence | apparent KD of MS2 coat protein (input ligand: arginine 13.2 mM) [nM] | apparent KD of MS2 coat protein [1] [nM] | apparent KD of MS2 coat protein [2] [nM] | apparent KD of MS2 coat protein [3] [nM] | apparent KD of MS2 coat protein (input ligand: none) [nM]
UCGGGCAGAGCGGCCGCCACUGUAUGGCGUGCGGAUGACGGAACAUGAGGAUCACCCAUGUUGUUUAGGACCGGGCUUGCCGCGA [cocmullin] | 14 | 14.7 | 11.5 |  | 
CCCAACAUGAGGAUCACCCAUGUUCCGGGUCGAGGACCGGUACGGCCGCCACUCGGUAUGAUGGGUGUGCAGCGUAUCUGCACCA [theeternabot_sameState_MS2_Trp_A_22] | 30.9 | 61.1 | 68.4 |  | 
UUUGAUAGGACAGAUACCAGCGUGUUAUAGAACAUGAGGAUCACCCAUGUAGUGAUCAAGCGCCCUUGGCAGCUGGUUUGUUAGG [7.K] | 119 | 350 |  | 196 | 
UUAGAUAUGACAGAUACCAGCGUGUUGUAGAACAUGAGGAUCACCCAUGUAGUGAUCGAGCGCCCUUGGCAGCUGGUGUGUUUGG [7.S] | 163 | 303 |  | 319 | 
UAAAACAUGAGGAUCACCCAUGUAAUUGAUACCAGAGUGAUGAUCCUCCCUUGGCAGCAAAUAACGCAUUGGAAACAAUGCGAAA [Mat - Same State Theophlline A - Mod of Eli - D26] | 51.4 | 91.6 |  | 47.8 | 
CACUUCAUGUGAGAUACCAGUGCCUUACAUGAGGAUCACCCAUGUCGUAAUGUGGAGAAGCACCCUUGGCAGCUCGCUUCGAGUG [Theo B SS t6] | 57.2 | 91.6 |  | 87.6 | 
GCACAAGAUGGAAGGAGCGCUGGUAUAAGUCACAUGAGGAUCACCCAUGUGCUCCUUGCCGAGCAGGUAGGUCGCCAUCUUGUGC [SSAB NP+V+V2 #5] | 22.3 | 71 | 66.9 | 68.1 | 42
GCAUCCUAGUCGGCCGCCACUGGUACGAAUACCUUCACCCGUGUGCACAUGAGGAUCACCCAUGUCAGGACCGGGACUAGGAUGC [SSTryp B #23] | 9.58 | 13.8 | 9.91 | 9.61 | 9.22
CGCAACCAACAUGAGGAUCACCCAUGUGAAGGAGCGCCGAAGAAGGCAGGUAGGUCGCACAUGAAUAAAUCAUGUAAAAGGUUGC [MAT - Exclusion Arginine A - Mod of Eli - D19] | 17.7 | 64.5 | 71.2 | 40.9 | 51.4
AUUUGGCGUAGUGUUGCUCGUGGGAUAAAACGAGGACCGGUACGGCCGCCACUCGAUGAUUAACAUGAGGAUCACCCAUGUAAAU [theeternabot_exclusion_MS2_Trp_A_22] | 17.5 | 30.6 | 32.2 |  | 
AACAUGAGGAUCACCCAUGUCCUCGUGUACCGAGGACCGGUACGGCCGCCACUCGGUUCUCGCGAGGAUGGUCAAAGACUAUCCA [Omei Trp A SS B v4] | 202 | 643 | 1010 |  | 
ACAUGAGGAUCACCCAUGUCAGGGCACGAUACCAGCUGAUCCGGUGGCCCUUGGCAGCGUGACGUGUGGUCAUGAGGAUCACCCG [wsmullin] | 283 | 642 | 638 | 464 | 520
GACCGAUUAUAGCGCGAUUGUCUUGUGGAAGGAGCGCAGAGGGCUGCAGGUAGGUCGCCACAUGAGGAUCACCCAUGUCAGGAUA [Ananvediri] | 30.5 | 53.4 | 35.8 | 30.9 | 20.2
UUGUUGUUUGGAAGGAGCGUGUAAGAUUAAGAACAUGAGGAUCACCCAUGUUUUAAGGGAACACAGGUAGGUCGCCGGGUGGUGG [11.R] | 15.5 | 19 | 14.8 | 15.6 | 13.9
